In US20200325239A1, “Modulation of Aminopeptidase N/CD13 and Rheumatoid Arthritis” (THE REGENTS OF THE UNIVERSITY OF MICHIGAN, priority 2016, published 2020):

Experiments:
[1] = tested on: Human dermal microvascular endothelial cell (HMVEC); assay: HMVEC chemotaxis in modified Boyden chamber; assay type: cell-based; conditions: p<0.05 vs PBS; dose-dependent
Description: FIG. 10. Human dermal microvascular endothelial cell (HMVEC) chemotaxis was performed in a modified Boyden chamber using CD13 at various concentrations. […] CD13 induced HMVEC migration from 500-2000 ng/ml (p<0.05). Data represent the mean of 3 individual experiments±SEM. Three high-power fields (hpf) (×400) were counted in each replicate well and results were expressed as cells per hpf. PBS served as negative control.

normal human MN = assay: Normal human MN chemotaxis in modified Boyden chambers; assay type: cell-based; conditions: PBS negative control
Description: FIG. 14. To evaluate the contribution of CD13 to RA inflammation by recruiting MNs, normal human MN chemotaxis assays were performed in modified Boyden chambers. […] PBS served as negative control. n=number of experiments. The results are expressed as mean+SEM and *p<0.05 was considered significant. n=number of replicates.

RA FLS = assay: FLS growth assay (Essen IncuCyte, percent confluence); assay type: cell-based, human; conditions: proliferation and migration
Description: FIG. 5. […] FLS were seeded on 96-well plates overnight. An Essen Incucyte system was used for both growth (A) and migration (B) assays. Growth was calculated as the difference in percent confluence from time 0. Migration was measured in a scratch-wound assay using relative wound density. All data are expressed as a ratio to untreated FLS of the same cell line. mean±SEM n≥4 (*p≤0.05).
RA FLS were seeded on Essen Image Lock 96-well plates (Essen Bioscience, Ann Arbor, Mich.) overnight at either 3,000 cells/well for growth or 30,000 cells/well for migration. For growth, the 20% FBS CMRL media was removed and cells were washed 1× with PBS. 100 μl of medium alone (control) or medium containing anti-CD3 (25 or 50 ng/ml, OKT3, used as a non-reactive isotype control antibody in this experiment), anti-CD13 1D7 or WM15 (Biolegend, San Diego, Calif.) (25 or 50 ng/ml), or CD13 chemical inhibitors actinonin (Sigma-Aldrich, St. Louis, Mo.) or bestatin (Sigma-Aldrich, St. Louis, Mo.) (10 μM and 50 μM, respectively) was added to the wells. Images and confluence data were collected using an Essen IncuCyte (Essen Bioscience, Ann Arbor, Mich.). For the scratch-wound migration assay, wounds were made via the Essen scratch-wound tool in the seeded 96-well plate. Plates were then washed 2× with PBS and medium was added similar to the growth plates. Data were collected and the confluence or relative wound density calculated by the Essen IncuCyte.

C57Bl/6 mice [2] = assay: Matrigel plug angiogenesis assay in vivo (hemoglobin); set-up: species or system mouse; conditions: subcutaneous Matrigel 500 μl, plugs harvested after 7 days
Description: FIG. 13. To test the effect of CD13 in angiogenesis in vivo, Matrigel plug assays were performed using C57Bl/6 mice. Each mouse was given a subcutaneous injection of sterile GFR Matrigel (500 μl/injection) containing either CD13 or PBS, a negative control. Matrigel plugs were harvested after 7 days. Hemoglobin (Hb) was determined. […] Results are represented as the mean+SEM and *p<0.05 was considered significant. n=number of mice per group.
This assay is performed as described previously (56-58). RA SFs sham- or CD13-depleted (50 μl in 500 μl of Matrigel) are injected subcutaneously in C57Bl/6 mice. After 7 days, the mice are euthanized and the Matrigel plugs are removed, weighed, and processed for hemoglobin (Hb) measurement or immunofluorescence. Hemoglobin (Hb) concentration is determined either by the Drabkin method using a Drabkin's reagent kit (Sigma) or with the 3,3,5,5-tetramethylbenzidine substrate system (Sigma) (56, 61, 62). Hb values are normalized to plug weight.

C57Bl/6 mice [3] = assay: Mouse model of inflammatory arthritis, intra-articular injection into knee joints; assay type: in vivo; conditions: 500 ng in 20 μl of PBS, 24 and 48 hours
Description: To use the mouse model of inflammatory arthritis, female C57Bl/6 mice (8-10 weeks old, Harlan Laboratories) are anesthetized with ketamine (80-120 mg/kg body weight) and xylazine (5-10 mg/kg body weight) intraperitoneally, and the knee circumference is determined by caliper measurements before intra-articular injection, as described (67). The anesthetized mice receive 20 μl/knee joint of PBS and recombinant mouse CD13 (500 ng in 20 μl of PBS). Circumference measurements are obtained in a blinded manner. Mice are euthanized after 24 and 48 hours of the intraarticular injection. Mouse knees are measured before euthanasia. Hematoxylin and eosin (H&E) staining of the mouse knee cryosections is performed to determine the inflammatory response of CD13 (67). Immunofluorescence staining is also performed on cryosections using rat anti-mouse F4/80 antibody (GenTex) to detect MNs/macrophages. The number of F4/80-positive MNs/macrophages is calculated as the average number of cells in 3 fields (400X).

[4] = tested on: Human dermal microvascular endothelial cell (HMVEC); assay: HMVEC tube formation on growth factor-reduced Matrigel; assay type: cell-based; conditions: GFR Matrigel
Description: FIG. 11. Human dermal microvascular endothelial cell (HMVEC) tube formation was assessed on growth factor-reduced Matrigel (GFR, BD Biosciences) with CD13. […] Arrows indicate the number of tubes formed in each group. n=number of replicates in each group. The number of tubes formed was quantitated by an observer blinded to the experimental groups.
HMVEC Matrigel tube formation assay. After finding that CD13 is chemotactic for HMVECs, the role of CD13 in RA is examined by performing HMVEC capillary morphogenesis assay on Matrigel tube with sham- or CD13-depleted RA SFs. Growth factor-reduced Matrigel (GFR, BD Biosciences) is used to perform this assay (56-58). CD13- or sham-depleted RA SFs are used as test groups (58). The chambers are incubated for 16 to 18 hours at 37° C. in a 5% CO2 humidified atmosphere. Cells are fixed and stained with Diff-Quik. The number of tubes formed is quantitated by an observer blinded to the experimental groups. bFGF (30 nM) and phosphate buffered saline (PBS) serve as positive and negative controls, respectively.

B1: CD13: recombinant Aminopeptidase N/CD13 used as stimulus; recombinant mouse CD13 planned for knee injection (protein, UniProt P15144 2-967, looked up)
Aminopeptidase N: AKGFYISKSLGILGILLGVAAVCTIIALSVVYSQEKNKNANSSPVASTTPSASATTNPASATTLDQSKAWNRYRLPNTLKPDSYRVTLRPYLTPNDRGLYVFKGSSTVRFTCKEATDVIIIHSKKLNYTLSQGHRVVLRGVGGSQPPDIDKTELVEPTEYLVVHLKGSLVKDSQYEMDSEFEGELADDLAGFYRSEYMEGNVRKVVATTQMQAADARKSFPCFDEPAMKAEFNITLIHPKDLTALSNMLPKGPSTPLPEDPNWNVTEFHTTPKMSTYLLAFIVSEFDYVEKQASNGVLIRIWARPSAIAAGHGDYALNVTGPILNFFAGHYDTPYPLPKSDQIGLPDFNAGAMENWGLVTYRENSLLFDPLSSSSSNKERVVTVIAHELAHQWFGNLVTIEWWNDLWLNEGFASYVEYLGADYAEPTWNLKDLMVLNDVYRVMAVDALASSHPLSTPASEINTPAQISELFDAISYSKGASVLRMLSSFLSEDVFKQGLASYLHTFAYQNTIYLNLWDHLQEAVNNRSIQLPTTVRDIMNRWTLQMGFPVITVDTSTGTLSQEHFLLDPDSNVTRPSEFNYVWIVPITSIRDGRQQQDYWLIDVRAQNDLFSTSGNEWVLLNLNVTGYYRVNYDEENWRKIQTQLQRDHSAIPVINRAQIINDAFNLASAHKVPVTLALNNTLFLIEERQYMPWEAALSSLSYFKLMFDRSEVYGPMKNYLKKQVTPLFIHFRNNTNNWREIPENLMDQYSEVNAISTACSNGVPECEEMVSGLFKQWMENPNNNPIHPNLRSTVYCNAIAQGGEEEWDFAWEQFRNATLVNEADKLRAALACSKELWILNRYLSYTLNPDLIRKQDATSTIISITNNVIGQGLVWDFVQSNWKKLFNDYGGGSFSFSNLIQAVTRRFSTEYELQQLEQFKKDNEETGFGSGTRALEQALEKTKANIKWVKENKEVVLQWFTENSK
**Q.** Which “concentrations at which HMVEC migration was induced” value [1] does the source give for B1 here?
**A.** 500 to 2000 ng/mL

**Q.** What about the MN migration (normal human MN) of the same molecule?
**A.** concentration-dependent increase in MN migration

**Q.** What about the “effect of additional rhCD13 on RA FLS proliferation and migration” value (RA FLS) of the same molecule?
**A.** did not consistently affect the RA FLS

**Q.** And the “hemoglobin (Hb) in Matrigel plugs compared to PBS” value (C57Bl/6 mice [2])?
**A.** more than a four-fold increase in Hb

**Q.** And the “increase in mouse knee circumference compared to PBS” value (C57Bl/6 mice [3])?
**A.** 2-3 fold

**Q.** And the “EC tubes formed compared to PBS” value [4]?
**A.** almost two-fold more numerous
